The values below come from patent publication US20260207669A1 (TIANJIN MEDICAL UNIVERSITY GENERAL HOSPITAL, published 2026).

T1: human BAFFR overexpressed on 293T cells (human, UniProt Q96RJ3 1-184)
T1 construct: whole, on cells
T1 sequence (looked up): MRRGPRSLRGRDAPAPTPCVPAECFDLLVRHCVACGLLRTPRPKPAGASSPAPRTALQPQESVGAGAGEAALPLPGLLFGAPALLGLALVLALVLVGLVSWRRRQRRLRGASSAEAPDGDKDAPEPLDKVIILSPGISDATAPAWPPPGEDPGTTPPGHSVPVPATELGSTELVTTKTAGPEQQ

B1: NB467-71 (Fc fusion)
chain: EVQVVESGGGLVQSGGSLRLSCVASGFNLDHYAIGWFRQIPGKEREGVSCISSGGDSTFYIDSVKGRFTISRDNAKNTVYLQMNSLKPEDTAVYHCAADVYYSGNYLYRSCNPHESKYWGQGTQVTVSS
notes: also called anti-BAFFR nanobody NB467-71; antibody NB467-71; not shown: Human IgG1 Fc fused to the VHH
B2: NB467-88 (Fc fusion)
chain: EVQVVESGGGLVQPGGSLRLSCAASGFRLNYYAIGWFRQAPGKEREGVSCISSGGDRIYYADSVKGRFTISRDNAKNTVYLQMNSLKPEDTAVYYCAADLYYSGSYYYRSCNPAESGYWGQGTQVTVSS
notes: also called anti-BAFFR nanobody NB467-88; antibody NB467-88; not shown: Human IgG1 Fc fused to the VHH
B3: NB467-7 (Fc fusion)
chain: QVQLVESGGGSVHPGGSLRLSCAGSGFTLAGYAIGWFRQAPGKEREGVSCINSSGGSTYYADSVKGRFTISRDNAKNTVYLQMNSLKPEDTAVYYCAADVYYSGSYLYRSCNPTESKYWGQGTQVTVSS
notes: also called anti-BAFFR nanobody NB467-7; antibody NB467-7; not shown: Human IgG1 Fc fused to the VHH

For the assay, the target named is T1, human BAFFR overexpressed on 293T cells. Put plainly: flow cytometry on HEK-293T-BAFFR cells, anti-human Fc-647 secondary antibody. On the procedure:
The cells were resuspended in a suitable volume of staining solution for flow cytometry, so that the final cell concentration per tube reached 2×10⁵ cells/mL.
The antibodies NB467-7, NB467-71, and NB467-88 produced in Example 1 and the control antibody were diluted to 200 nM, respectively. […] After incubation, the cells were washed once with a FACS buffer.
The anti-human FC-647 secondary antibody (Jackson, 109-605-003) was diluted according to the instructions, and 100 μL of the diluted secondary antibody was added to a sample tube. After uniform mixing, the system was incubated at 4° C. for 60 min. After incubation, the cells were washed 3 times with FACS, and the cell precipitate obtained by centrifugation was resuspended in 200 μL of PBS and detected by flow cytometry (Sony, SA3800).
For the molecule B1, it took 10.6 nM to reach a half-maximal effect (EC50).

B2 came in with an EC50 of 1.31 nM.

Consider B3, for which the EC50 came to 6.73 nM.
